# According to patent publication US20060142195:
# Target: T1, fibrin, P02671
# T1 chain 1: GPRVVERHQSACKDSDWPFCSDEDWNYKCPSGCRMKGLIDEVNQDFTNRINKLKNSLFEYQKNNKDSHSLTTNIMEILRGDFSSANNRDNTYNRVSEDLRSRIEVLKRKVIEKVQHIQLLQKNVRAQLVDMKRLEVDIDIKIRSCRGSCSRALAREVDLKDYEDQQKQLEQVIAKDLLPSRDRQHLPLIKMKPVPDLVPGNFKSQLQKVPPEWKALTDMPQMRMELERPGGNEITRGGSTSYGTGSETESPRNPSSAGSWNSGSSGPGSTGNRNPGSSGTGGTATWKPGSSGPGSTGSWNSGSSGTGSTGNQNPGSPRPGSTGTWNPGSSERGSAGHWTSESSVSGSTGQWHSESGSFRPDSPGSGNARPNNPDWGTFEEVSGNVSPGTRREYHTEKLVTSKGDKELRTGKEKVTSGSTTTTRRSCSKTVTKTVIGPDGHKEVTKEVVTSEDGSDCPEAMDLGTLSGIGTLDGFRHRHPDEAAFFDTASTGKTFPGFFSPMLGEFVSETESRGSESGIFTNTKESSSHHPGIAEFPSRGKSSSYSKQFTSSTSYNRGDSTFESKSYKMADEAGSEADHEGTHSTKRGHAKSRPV
# T1 chain 2: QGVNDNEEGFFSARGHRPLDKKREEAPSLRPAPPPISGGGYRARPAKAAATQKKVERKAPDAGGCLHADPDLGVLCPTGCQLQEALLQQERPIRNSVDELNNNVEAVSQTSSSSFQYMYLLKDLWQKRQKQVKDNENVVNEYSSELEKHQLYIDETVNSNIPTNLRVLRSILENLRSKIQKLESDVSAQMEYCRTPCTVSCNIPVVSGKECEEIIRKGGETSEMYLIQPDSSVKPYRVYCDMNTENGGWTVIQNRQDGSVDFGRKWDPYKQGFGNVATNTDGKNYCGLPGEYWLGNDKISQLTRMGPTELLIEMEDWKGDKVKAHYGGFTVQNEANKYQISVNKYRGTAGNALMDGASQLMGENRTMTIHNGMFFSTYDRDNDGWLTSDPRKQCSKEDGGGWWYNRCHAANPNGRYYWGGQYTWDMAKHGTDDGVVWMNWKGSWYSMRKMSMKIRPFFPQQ
# T1 chain 3: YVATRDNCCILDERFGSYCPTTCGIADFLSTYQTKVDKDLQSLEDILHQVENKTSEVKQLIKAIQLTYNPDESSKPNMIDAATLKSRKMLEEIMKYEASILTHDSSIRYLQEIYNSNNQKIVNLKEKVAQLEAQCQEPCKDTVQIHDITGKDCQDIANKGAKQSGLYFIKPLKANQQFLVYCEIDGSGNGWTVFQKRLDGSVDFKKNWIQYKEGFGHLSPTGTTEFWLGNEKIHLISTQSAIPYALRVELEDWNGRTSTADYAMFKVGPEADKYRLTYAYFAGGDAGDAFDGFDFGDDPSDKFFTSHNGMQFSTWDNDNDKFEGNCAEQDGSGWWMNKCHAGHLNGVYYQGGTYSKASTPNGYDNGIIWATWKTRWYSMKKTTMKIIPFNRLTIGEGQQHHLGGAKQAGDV
protein,measurement,value
modified tissue plasminogen activator with an amino acid sequence according to SEQ ID No. 1 (protein) AYGVACKDEITQMTYRRQESWLRPEVRSKRVEHCQCDRGQARCHTVPVKSCSEPRCFNGGTCQQALYFSDFVCQCPEGFAGKCCEIDTRATCYEDQGISYRGTWSTAESGAECTNWNSSALAQKPYSGRRPDAIRLGLGNHNYCRNPDRDSKPWCYVFKAGKYSSEFCSTPACSSTCGLRQYSQPQFHSTGGLFADIASHPWQAAIFAKHRRSPGERFLCGGILISSCWILSAAHCFQERFPPHHLTVILGRTYRVVPGEEEQKFEVEKYIVHKEFDDDTYDNDIALLQLKSDSSRCAQESSVVRTVCLPPADLQLPDWTECELSGYGKHEALSPFYSERLKEAHVRLYPSSRCTSQHLLNRTVTDNMLCAGDTRSGGPQANLHDACQGDSGGPLVCLNDGRMTLVGIISWGLGCGQKDVPGVYTKVTNYLDWIRDNMRP,fibrin specificity (semi quantitative tests),showed a increased fibrin specificity in comparison to the wild type t-PA
